Data: patent publication US20250127807A1, “TREATMENT OF VAGINAL DYSBIOTIC CONDITIONS WITH ASSOCIATED ELEVATED VAGINAL CALPROTECTIN” (priority 2022, published 2025)

Design: species or system women
Conditions: in vivo
Procedure: Elevated levels of calprotectin in BV and in L iners-dominated vaginal microbiomes sequester manganese and zinc, preventing growth of L crispatus its maintenance of a healthy vaginal microbiome. […] Six women each received 3 doses of formulation Z2 separated by 48 hours. Vaginal fluid swabs were collected at t=0, 2, 4, 8, 12, 18, 24, 30, 36, and 42 hours post dose and vaginal fluid concentrations of lactoferrin and mannitol were determined. Average concentrations for the combined 18 dose administrations were obtained based on calculation of Area Under Curve for the locally estimated scatterplot smoothing (Loess) profile of lactoferrin and mannitol concentrations assuming 6 mL volume of distribution. The average concentration of lactoferrin was 33 mg/mL and the average concentrations of mannitol was 20 mg/mL. Average concentrations of both substances correspond to 0.1 fraction or 10% of the administered dose, 300 mg lactoferrin and 195 mg mannitol per Z2 tablet respectively. The 0.1 factor was used to estimate the expected average elemental Mn concentration based on the initial dose per tablet.

B1: lactoferrin (protein, UniProt P24627 20-708, looked up)
Lactotransferrin: APRKNVRWCTISQPEWFKCRRWQWRMKKLGAPSITCVRRAFALECIRAIAEKKADAVTLDGGMVFEAGRDPYKLRPVAAEIYGTKESPQTHYYAVAVVKKGSNFQLDQLQGRKSCHTGLGRSAGWIIPMGILRPYLSWTESLEPLQGAVAKFFSASCVPCIDRQAYPNLCQLCKGEGENQCACSSREPYFGYSGAFKCLQDGAGDVAFVKETTVFENLPEKADRDQYELLCLNNSRAPVDAFKECHLAQVPSHAVVARSVDGKEDLIWKLLSKAQEKFGKNKSRSFQLFGSPPGQRDLLFKDSALGFLRIPSKVDSALYLGSRYLTTLKNLRETAEEVKARYTRVVWCAVGPEEQKKCQQWSQQSGQNVTCATASTTDDCIVLVLKGEADALNLDGGYIYTAGKCGLVPVLAENRKSSKHSSLDCVLRPTEGYLAVAVVKKANEGLTWNSLKDKKSCHTAVDRTAGWNIPMGLIVNQTGSCAFDEFFSQSCAPGADPKSRLCALCAGDDQGLDKCVPNSKEKYYGYTGAFRCLAEDVGDVAFVKNDTVWENTNGESTADWAKNLNREDFRLLCLDGTRKPVTEAQSCHLAVAPNHAVVSRSDRAAHVKQVLLHQQALFGKNGKNCPDKFCLFKSETKNLLFNDNTECLAKLGGRPTYEEYLGTEYVTAIANLKKCSTSPLLEACAFLTR
average concentration as fraction of the administered dose: 10%
